Results published in publication PMC5458082, “Fibril polymorphism affects immobilized non-amyloid flanking domains of huntingtin exon1 rather than its polyglutamine core” (Nature Communications, 2017).

B1: mutant huntingtin exon1 with a 44-residue polyQ domain, released from the MBP fusion protein by Factor Xa (domain or fragment)
chain: MATLEKLMKAFESLKSFQQQQQQQQQQQQQQQQQQQQQQQQQQQQQQQQQQQQQQQQQQQQPPPPPPPPPPPQLPQPPPQAQPLLPQPQPPPPPPPPPPGPAVAEEPLHRPSGS
notes: huntingtin exon1; The polyQ domain is expanded to 44 Gln against the UniProt entry. numbers count on: this Q44 construct from Met1; linker before the C-terminal His6, translated from the printed DNA; Uniformly 13C,15N-labelled for the ssNMR samples; Forms narrow (~6 nm) fibrils at 37 °C and wide (~15 nm) fibrils at 22 °C; both are the same chain; also called htt exon1; mutant htt exon1; source: …

What was measured:
[1] = molecular target: the molecule itself; assay: fibril formation, seen by negative-stain TEM + FTIR + MAS solid-state NMR; htt exon1 released from the MBP fusion by Factor Xa at 22 or 37 °C in PBS pH 7.4 with 0.02% sodium azide; mature fibrils pelleted and washed
[2] = molecular target: B1; assay: seeded and unseeded aggregation kinetics (ThT fluorescence + HPLC-based sedimentation assay); disaggregated htt^NTQ23P10K2 peptide in PBS pH 7.0 at 37 °C, with or without 20 mol-% sonicated htt exon1 fibril seeds formed at 22 or 37 °C; conditions: both partners purified

binding result [2]	Binder	binding result [1]
	B1	binds
binds	htt^NTQ23P10K2 peptide (written out from the printed formula Q23P10K2: 23 Gln, 10 Pro, 2 Lys; also called shorter peptides with a 23-residue polyQ domain) peptide: MATLEKLMKAFESLKSFQQQQQQQQQQQQQQQQQQQQQQQPPPPPPPPPPKK	
